US20240409627A1
Values belong to the molecule of their own block, whether it stands above or below them.

Legend:
recombinant inhibin A = recombinant inhibin A (UniProt P05111); test: cell-based or functional assay
[1] = biological target: HA-tagged endoglin (endoglin-L) (UniProt P17813); test: patch/FRAP on live COS7 cells; HA-endoglin immobilized by IgG cross-linking, Fab'-labeled myc-ALK1 measured; no inhibin
[2] = biological target: HA-tagged endoglin (endoglin-L) (UniProt P17813); test: patch/FRAP on live COS7 cells; HA-endoglin immobilized by IgG cross-linking, Fab'-labeled myc-ALK1 measured; in the presence of 4 nM inhibin A
[3] = biological target: T1, endoglin on HMEC-1 human microvascular endothelial cells (human) (UniProt P17813); test: cell-based or functional assay
T1 sequence (looked up): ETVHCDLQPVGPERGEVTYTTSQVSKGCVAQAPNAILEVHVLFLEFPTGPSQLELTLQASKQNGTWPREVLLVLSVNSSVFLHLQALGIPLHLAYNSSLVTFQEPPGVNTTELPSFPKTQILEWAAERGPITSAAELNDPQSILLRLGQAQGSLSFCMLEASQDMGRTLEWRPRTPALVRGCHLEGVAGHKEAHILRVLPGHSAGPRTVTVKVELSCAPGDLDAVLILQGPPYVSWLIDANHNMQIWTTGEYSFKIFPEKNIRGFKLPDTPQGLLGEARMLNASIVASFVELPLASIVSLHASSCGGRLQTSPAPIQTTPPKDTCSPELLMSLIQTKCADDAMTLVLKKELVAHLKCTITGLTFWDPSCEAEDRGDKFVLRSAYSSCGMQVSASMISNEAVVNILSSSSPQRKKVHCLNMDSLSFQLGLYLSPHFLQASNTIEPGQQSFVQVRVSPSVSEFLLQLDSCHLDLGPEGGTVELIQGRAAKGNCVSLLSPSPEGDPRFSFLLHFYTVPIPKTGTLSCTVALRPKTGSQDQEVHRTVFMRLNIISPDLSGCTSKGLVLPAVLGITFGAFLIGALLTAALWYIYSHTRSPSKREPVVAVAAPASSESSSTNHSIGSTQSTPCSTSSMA

UniProt P05111, sequence (P05111 233-366 limits assumed, chain 1 of 2): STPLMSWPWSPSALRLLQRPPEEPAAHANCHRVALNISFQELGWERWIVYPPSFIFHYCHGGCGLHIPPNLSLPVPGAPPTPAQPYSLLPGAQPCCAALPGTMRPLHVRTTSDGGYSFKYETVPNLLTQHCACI
UniProt P05111, sequence (P08476 311-426 limits assumed, chain 2 of 2, further chain): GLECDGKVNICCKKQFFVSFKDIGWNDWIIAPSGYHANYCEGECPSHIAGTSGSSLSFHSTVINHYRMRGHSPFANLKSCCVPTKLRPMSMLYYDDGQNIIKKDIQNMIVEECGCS

fold decrease in inhibin A induced permeability of HMEC-1 monolayer at 4 h (FITC-dextran), 10 ng/mL ALK1-Fc (recombinant inhibin A): 1.5 times
Molecule: ALK1-Fc, a human chimeric ALK1 protein (from UniProt P37023 22-118) (Fc fusion)

reduction in Rf (mobile fraction) [1]: 45%
reduction in Rf (mobile fraction) [2]: 70%
Molecule: myc-tagged ALK1 (from UniProt P37023 22-503) (receptor)

fold decrease in inhibin A induced permeability of HMEC-1 monolayer at 4 h (FITC-dextran), 100 µg/mL TRC105 [3]: 2.2 times
B1: Tracon 105 (TRC105), a humanized endoglin monoclonal antibody (antibody, INN chains, looked up, V domains shown)
VH: EVKLEESGGGLVQPGGSMKLSCAASGFTFSDAWMDWVRQSPEKGLEWVAEIRSKASNHATYYAESVKGRFTISRDDSKSSVYLQMNSLRAEDTGIYYCTRWRRFFDSWGQGTTLTVSS
VL: QIVLSQSPAILSASPGEKVTMTCRASSSVSYMHWYQQKPGSSPKPWIYATSNLASGVPVRFSGSGSGTSYSLTISRVEAEDAATYYCQQWSSNPLTFGAGTKLELK
